{
  "source": "paper PMC9750192",
  "about": "(The Journal of Cell Biology, 2022)",
  "binders": {"B1": {"name": "SVBP with a 6His tag, the SVBP chain of the cryo-EM sample (natural protein, human, UniProt Q8N300 1-66, looked up)", "chain": "MDPPARKEKTKVKESVSRVEKAKQKSAQQELKQRQRAEIYALNRVMTELEQQQFDEFCKQMQPPGE"}},
  "target": "VASH2 (Cys158Ala), the VASH2 chain of the cryo-EM sample (human, UniProt Q86V25 1-355, Cys158 to alanine)",
  "sequence (Q86V25 whole entry C158A)": "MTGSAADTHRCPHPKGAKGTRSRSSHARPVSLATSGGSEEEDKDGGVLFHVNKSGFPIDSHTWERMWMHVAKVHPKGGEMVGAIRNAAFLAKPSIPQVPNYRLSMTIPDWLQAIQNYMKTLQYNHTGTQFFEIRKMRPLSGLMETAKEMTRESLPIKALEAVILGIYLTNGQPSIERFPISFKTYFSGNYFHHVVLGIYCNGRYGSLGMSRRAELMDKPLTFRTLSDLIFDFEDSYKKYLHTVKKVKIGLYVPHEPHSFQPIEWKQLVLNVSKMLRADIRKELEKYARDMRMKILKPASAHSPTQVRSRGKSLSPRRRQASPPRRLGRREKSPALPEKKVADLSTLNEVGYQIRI",
  "assay": "cryo-EM structure",
  "data": [
    {"binder": "B1", "values": [
      {"measurement": "binding result", "result": "binds"}
    ]}
  ]
}
